Measured values taken from US20200339702A1 (ULTRAHUMAN THIRTEEN, published 2020).

T1: rhesus ERBB3 on transiently transfected HEK-293 cells (rhesus monkey (Macaca mulatta), UniProt P21860 20-1342 (human entry))
T1 construct: also called rhesus ERBB3+ HEK-293 cells
T1 chain: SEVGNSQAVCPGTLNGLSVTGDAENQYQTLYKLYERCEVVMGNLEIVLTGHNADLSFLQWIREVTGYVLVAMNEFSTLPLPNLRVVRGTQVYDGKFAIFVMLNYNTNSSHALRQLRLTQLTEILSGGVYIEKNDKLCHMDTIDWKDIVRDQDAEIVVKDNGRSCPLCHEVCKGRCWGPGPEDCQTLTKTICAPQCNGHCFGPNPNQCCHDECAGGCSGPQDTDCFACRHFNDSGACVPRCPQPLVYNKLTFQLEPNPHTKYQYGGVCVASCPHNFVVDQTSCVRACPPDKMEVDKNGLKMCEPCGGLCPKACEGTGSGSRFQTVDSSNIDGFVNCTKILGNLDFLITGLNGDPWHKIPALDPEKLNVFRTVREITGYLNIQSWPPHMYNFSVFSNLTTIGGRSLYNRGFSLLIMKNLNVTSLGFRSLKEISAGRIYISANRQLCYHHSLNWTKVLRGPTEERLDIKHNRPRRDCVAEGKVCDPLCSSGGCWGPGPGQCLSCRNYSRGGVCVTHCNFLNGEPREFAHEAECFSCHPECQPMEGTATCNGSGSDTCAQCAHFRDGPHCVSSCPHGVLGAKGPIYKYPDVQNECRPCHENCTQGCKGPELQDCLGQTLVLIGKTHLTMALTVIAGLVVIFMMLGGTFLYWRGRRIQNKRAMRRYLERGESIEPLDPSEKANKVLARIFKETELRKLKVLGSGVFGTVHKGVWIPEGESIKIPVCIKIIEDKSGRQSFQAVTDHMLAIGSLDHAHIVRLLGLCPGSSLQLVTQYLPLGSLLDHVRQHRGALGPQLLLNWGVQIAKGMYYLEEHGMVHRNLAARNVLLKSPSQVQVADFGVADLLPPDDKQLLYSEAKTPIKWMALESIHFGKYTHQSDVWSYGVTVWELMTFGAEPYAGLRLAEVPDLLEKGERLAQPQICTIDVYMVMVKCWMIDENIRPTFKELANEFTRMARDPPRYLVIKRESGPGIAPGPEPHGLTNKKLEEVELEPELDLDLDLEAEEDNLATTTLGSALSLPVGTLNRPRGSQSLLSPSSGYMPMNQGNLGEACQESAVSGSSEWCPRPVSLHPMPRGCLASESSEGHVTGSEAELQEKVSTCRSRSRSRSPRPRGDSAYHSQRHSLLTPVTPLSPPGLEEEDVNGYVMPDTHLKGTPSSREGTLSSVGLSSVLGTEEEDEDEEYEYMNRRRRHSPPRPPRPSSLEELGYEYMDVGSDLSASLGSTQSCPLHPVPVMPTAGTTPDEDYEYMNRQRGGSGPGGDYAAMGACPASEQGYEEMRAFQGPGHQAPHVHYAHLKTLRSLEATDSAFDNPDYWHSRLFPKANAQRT

T2: rhesus monkey ERBB3 human Fc tagged recombinant protein (rhesus monkey (Macaca mulatta), UniProt P21860 20-643 (human entry), limits assumed)
T2 construct: also called rhesus ERBB3-Fc; rhERBB3
T2 chain: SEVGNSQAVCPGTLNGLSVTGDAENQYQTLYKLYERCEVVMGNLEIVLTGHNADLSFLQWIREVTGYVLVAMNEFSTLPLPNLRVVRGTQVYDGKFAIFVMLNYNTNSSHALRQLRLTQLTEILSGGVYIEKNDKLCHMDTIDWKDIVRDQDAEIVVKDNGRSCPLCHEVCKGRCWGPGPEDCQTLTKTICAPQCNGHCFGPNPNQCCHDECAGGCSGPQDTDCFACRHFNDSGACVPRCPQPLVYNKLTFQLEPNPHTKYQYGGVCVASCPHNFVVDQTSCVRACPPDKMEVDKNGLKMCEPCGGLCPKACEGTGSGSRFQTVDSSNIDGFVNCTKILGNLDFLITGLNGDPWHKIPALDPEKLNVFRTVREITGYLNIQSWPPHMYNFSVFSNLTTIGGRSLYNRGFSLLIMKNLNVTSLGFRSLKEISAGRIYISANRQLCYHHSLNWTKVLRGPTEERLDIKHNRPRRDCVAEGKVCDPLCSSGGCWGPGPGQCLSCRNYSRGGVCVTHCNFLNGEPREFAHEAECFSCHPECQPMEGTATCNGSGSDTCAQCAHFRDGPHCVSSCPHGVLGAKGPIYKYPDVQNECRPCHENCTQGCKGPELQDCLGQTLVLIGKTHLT


Assays:
[1] = target: T1, rhesus ERBB3 on transiently transfected …; assay: flow cytometry, rhesus ERBB3-transfected HEK-293
Procedure, shortened: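 Purified IgGs in IgG1null format were titrated threefold from 500 nM to 0.008 nM on HEK-293 cells transiently transfected with full-length human or rhesus ERBB3, with wild-type HEK-293 as comparison. Binding was detected with FITC anti-human IgG and read as mean fluorescence intensity of 10000 cells by flow cytometry.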

[2] = target: T2, rhesus monkey ERBB3 human Fc tagged …; assay: direct binding ELISA on coated rhesus ERBB3-Fc, IgG1null titrated
Method: Binding and cross-reactivity of the lead panel to the recombinant proteins was initially assessed by binding ELISA. The human ERBB3 human Fc tagged recombinant protein and the rhesus monkey ERBB3 human Fc tagged recombinant protein were coated to the surface of MaxiSorp™ flat-bottom 96 well plate at 1 μg/ml. The purified IgG samples were titrated in two fold serial dilutions starting from 500 nM to 0.008 nM and allowed to bind to the coated antigens. The Fabs were detected using mouse anti-c-myc antibody followed by donkey anti-mouse IgG conjugated to horseradish peroxidase. The IgGs were detected using the mouse anti-human IgG conjugated to horseradish peroxidase. Binding signals were visualized with 3,3′,5,5′-Tetramethylbenzidine Substrate Solution (TMB) and the absorbance measured at 450 nm.

| maximum MFI, fold over isotype control background [1] [fold] | EC50 (read off the curve) [2] [nM] | Binder |
| --- | --- | --- |
| > 20 | ~0.1 | 09D12 IgG1null (antibody, V domains shown, Human IgG1null and human Ckappa) VH: QVQLVESGGGLVKPGGSLRLSCAASGFTFSDYGMSWIRQAPGKGLEWVSTISDGGSYTYYADSVKGRFTISRDNAKNSLYLQMNSLRAEDTAVYYCAREYGDYDGFDYWGQGTLVTVSS VL: DIQMTQSPSSLSASVGDRVTITCRASQSISSYLNWYQQKPGKAPKLLIYAASSLDSGVPSRFSGSGSGTDFTLTISSLQPEDFATYYCLQYDSTPLTFGGGTKVEIK |
| > 20 | ~0.2 | TTP IgG1null (antibody, V domains shown, Designer clone; Human IgG1null and human Ckappa; also called Total Theoretically Possible clone) VH: QVQLVESGGGLVKPGGSLRLSCAASGFTFSDYGMSWIRQAPGKGLEWVSTISDSGSTIYYADSVKGRFTISRDNAKNSLYLQMNSLRAEDTAVYYCAREYGDYDGFDYWGQGTLVTVSS VL: DIQMTQSPSSLSASVGDRVTITCRASQSISSYLNWYQQKPGKAPKLLIYAASSLQSGVPSRFSGSGSGTDFTLTISSLQPEDFATYYCLQYDSTPLTFGGGTKVEIK |
